These results are taken from patent US20120219564 (published 2012).

Test [1] addresses T1, human TNFα (human, UniProt P01375). Briefly: SPR.
Test [2] addresses T1, human TNFα. Briefly: SPR. The source holds these as a separate data set. For orientation: SPR reads the build-up and loss of mass on a sensor chip optically.
The target of test [3] is T1, human TNFα. Briefly: other, equilibrium analysis.

T1 sequence (P01375 77-233): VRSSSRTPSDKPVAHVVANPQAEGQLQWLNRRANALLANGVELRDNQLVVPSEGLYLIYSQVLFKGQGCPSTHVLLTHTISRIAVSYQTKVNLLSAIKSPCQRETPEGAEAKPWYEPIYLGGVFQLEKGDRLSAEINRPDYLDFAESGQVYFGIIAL

B1: 2SD4 scFv (antibody, V domains shown)
VH: QVQLVESGGGLVQPGRSLRLSCAASGFTFDDYAMHWVRQAPGKGLDWVSAITWNSGHIDYADSVEGRFAVSRDNAKNALYLQMNSLRPEDTAVYYCTKASYLSTSSSLDNWGQGTLVTVSS
VL: DIQMTQSPSSLSASIGDRVTITCRASQGIRNYLAWYQQKPGKAPKLLIYAASTLQSGVPSRFSGSGSGTDFTLTISSLQPEDVATYYCQKYNSAPYAFGQGTKVEIK
Regarding B1, in the test with human TNFα [1], the off-rate (koff) amounted to 0.0137 s⁻¹.

B2: 2SD4 IgG4 (antibody, V domains shown)
VH: QVQLVESGGGLVQPGRSLRLSCAASGFTFDDYAMHWVRQAPGKGLDWVSAITWNSGHIDYADSVEGRFAVSRDNAKNALYLQMNSLRPEDTAVYYCTKASYLSTSSSLDNWGQGTLVTVSS
VL: DIQMTQSPSSLSASIGDRVTITCRASQGIRNYLAWYQQKPGKAPKLLIYAASTLQSGVPSRFSGSGSGTDFTLTISSLQPEDVATYYCQKYNSAPYAFGQGTKVEIK
Consider B2, for which the figures for the Kd with human TNFα [2] and in the test with human TNFα [3] were 20 nM and 0.48 nM, respectively.

By koff is commonly meant the rate constant with which the complex falls apart. By Kd is commonly meant the equilibrium constant for the complex coming apart. Read a low Kd as a tighter complex.
